Monomer form as share of total CHCHD2 signals (% of total CHCHD2 signals) and stoichiometry N data for one molecule are collected here from paper PMC5467237.

By stoichiometry N is commonly meant a count of units in the complex or per binding partner.

The experiment has as its target T1, hCHCHD2 WT expressed in CHCHD2-/- MEFs (human), Q9Y6H1.
T1 chain: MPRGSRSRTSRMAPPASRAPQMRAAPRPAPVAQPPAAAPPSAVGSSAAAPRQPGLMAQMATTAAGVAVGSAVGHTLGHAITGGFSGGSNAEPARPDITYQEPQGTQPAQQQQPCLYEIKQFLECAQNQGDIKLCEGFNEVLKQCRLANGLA
The experiment in a line: cross-linking; hCHCHD2-expressing MEFs treated with or without 0.5 μg/ml DSP in PBS for 20 min at RT, lysed, western blot with anti-CHCHD2; ratio of monomer signals to total signals. The following applies: remark: other sources report otherwise. Background: Immunoblotting shows a protein as a band on a membrane.

B1: hCHCHD2 WT expressed in CHCHD2-/- MEFs, Q9Y6H1 1-151 (natural protein)
chain: MPRGSRSRTSRMAPPASRAPQMRAAPRPAPVAQPPAAAPPSAVGSSAAAPRQPGLMAQMATTAAGVAVGSAVGHTLGHAITGGFSGGSNAEPARPDITYQEPQGTQPAQQQQPCLYEIKQFLECAQNQGDIKLCEGFNEVLKQCRLANGLA
Regarding B1, the monomer form as share of total CHCHD2 signals (% of total CHCHD2 signals) is below 50 and the stoichiometry N worked out at 2.
